Experiment: yeast display, Sf9 membrane polyspecificity reagent, FACS + sequencing; frameworks hold sequencing errors
Summary of the method: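 In a synthetic yeast display library (Saccharomyces cerevisiae BJ5465), nanobody expression was induced with galactose for 36–48 hours. FACS gates were set low and high (top ~1%) using anti-HA fluorescence for expression and streptavidin fluorescence for binding of the Sf9 membrane reagent. Each polyreactivity label is drawn from the gate of origin.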

Sequence | polyreactivity (PSR sort gate)
QVQLVESGGGFVQAGGSLRLSCAASGLTFWPYVMGWYRQAPGKERELVAAIDDTGITYYADSVKGRFTISRDNAKNTVYLQMNSLKPEDTAVYYCATDWDYYFPWIYPSDAGPEDGYWGQGTQVTVSS | low polyreactivity
QVQLVESGGGFVQAGGSLRLSCAASGRIFKQYGIGWYRQAPGKERELVAAIRSGDSTNYADSVKGRFTISRDNAKNTVYLQMNSLKPEDTAVYYCARDRPGDYAGYDYWGQGTQVTVSS | low polyreactivity
QVQLVESGGGFVQAGGSLRLSCAASGRIFPEYSRGWYRQAPGKERELVASINSDGSTNYADSVKGRFTISRDNAKNTVYLQMNSLKPEDTAVYYCATEGSGTGIFISKFDYWGQGTQVTVSS | low polyreactivity
QVQLVESGGGFVQAGGSLRLSCAASGRIFTRYAMGWYRQAPGKERELVASISWSGDGTYYADSVKGRFTISRDNAKNTVYLQMNSLKPDDTAVYYCAARYGTVVPGQVRWYGYGYWGQGTQVTVSS | high polyreactivity
QVQLVESGGGFVQAGGSLRLSCAASGRNFFSNAMGWYRQAPGNEWELVASITSRGGTTYYADSVKGRFTISSYNAKNPVYLQMNSVKPEDTAVYYCAALRRSYFGYWGQVTQVTVSS | high polyreactivity
QVQLVESGGGFVQAGGSLRLSCAASGRTFQFYAMGWYRQAPGKERELVAAITYSGDSTYYADSVKGRFTISRDNAKNTVYLQMNSLKPEDTAVYYCAAGVWFYWYEYDYWGQGTQVTVSS | high polyreactivity
QVQLVESGGGFVQAGGSLRLSCAASGSIFDYYTMGWYRQAPGKEREFVAGISDSGGSTNYADSVKGRFTISRDNAKNTVYLQMNSLKPEDTAVYYCNAEYVGWFYKYDYWGQGTQVTVSS | high polyreactivity
QVQLVESGGGFVQAGGSLRLSCAASGSIFGSYAMGWYRQAAGKERELVPDISSGGSTNYADSVKGRFTISRDNAKYTVYLQMNSLKPEDTAVYYCNADDPAGYLYWWGSWLESDYWGQGTQVTVSS | low polyreactivity
QVQLVESGGGFVQAGGSLRLSCAASGSIFRFYAMGWYRQAPGKERELVASITSGGSTNYADSVKGRFTISRDNAKNTVYLQMNSLKPEDTAVYYCAVRLKGYRRRDYWGQGTQVTVSS | high polyreactivity
QVQLVESGGGFVQAGGSLRLSCAASGSIFVKYAMGWYRQAPGTERELVAAISRSGDSTYYADSVKGRFTLSRDNAKNTVYLQMNSLNPEDTAAYSCAAYSGYGGVSMYYWGQGTQVTVSS | low polyreactivity
QVQLVESGGGFVQAGGSLRLSCAASGSIFWTYAMGWYRPAPGNERELVATIPYSDGNTYYADSVKGRFTISRDHAKNTVYLQMNSLKPEDTAVYYGAADTVPDWQEYDYWGQGTQVTVSS | low polyreactivity
QVQLVESGGGFVQAGGSLRLSCAASGSTFAYYTMGWYRQAPGKERELVAASYGAGGSTYYADSVKGRFTISRDNAKNTVYLQRNSLIPEDTAVYYCNVVVSVHISVSQYDYWGQGTQVTVSS | high polyreactivity
QVQLVESGGGFVQAGGSLRLSCAASGSTFSVYAMGWYRQAPGKERELVATIRRGGSTYADSVKGRFTISRDNAKNTVYLQMNSLKPEDTAVYDCAADAYVSSQPMDYWGQGTQVTVSS | high polyreactivity
QVQLVESGGGFVQAGGSLRLSCAGSGSTFTSYAMGWYRQAPGKERELVASIRSTSGRTYYADSVKGRFTISRDNAKNTVYLQMNSQKPQDTAVYYCAAATYGTWWTYADNPYDYWGQGTQGTVSS | high polyreactivity
QVQLVESGGGFVQAGGSLRLSCPPSGRIIQAYAMAWYRQSPGKERELVAAISRSGGGTYYADSVKVRFTISRDNAKNTVYFLMNSLKPEDTAVSYCNAYYYYYTARWTQVNYWGQGTQVTVSS | high polyreactivity
QVQLVESGGGFVQAGGSLRLSFAASGFTFGRYAMGWYIQAPGKERELVAAISWSDGSTYYADSVKGRFTISRDNAKNTVYLQMNSLKPQDTAVYYCAARYGGGISQAKYYYWGQGTQVTVSS | high polyreactivity
QVQLVESGGGFVQARGSLRLSCAACGRTYFPNAMGWYRQAPGKERELVAAITTSGGITYYADSVKGRFTISRDNAKNTVYLQMNSLKPEDTAVYYCATEWRTTGYRYYYWGQGTQVTVSS | high polyreactivity
QVQLVESGGGIDQAGGSLRLSCAASAFTLINYAMAWYRQAPGKERELVAAISQSGGSTYYADSVKGRFTISSDNAKNTVYLQMNSLKPEDTAVYYCNARRRGWGWTIGYVWRDDYWGQGTQVTVSS | high polyreactivity
QVQLVESGGGIFQAGGSLRLSCAASGRIYNYYAMGWTRQAPGQEREFVAAITRSGGRPYYADSVKGRFTISRDKGKNTVYLLMNSLKPEDTAVYYFAAPFGTYAYDYWGQGTLVTVSS | high polyreactivity
QVQLVESGGGIFQAGGSLRLSCSASGFTLQGYAMVWSRQAPGKERELVAAISWSGGSTYYADSVKGRFTISRDNAKNTVYLQMNSLKPEDTAVYYCAAETYFAEYWGQGTQVTVSS | high polyreactivity
QVQLVESGGGILQAGGSLRLSCAASGFISSVNAMGWYRQATGKERELVAAISDSATSTYYADSVKGRFTISRDNAKNTVYLQMNSLKPVDTALYYCAAYSHYVGYEYWGQGTQVTVSS | high polyreactivity

Sequence | polyreactivity (PSR sort gate)
QVQLVESGGGILQAGGSLRLSCAASGITFVVYAMGCYRQAPGKERELVDSITYSGGSTYYADSVKGRFTISRDNAKNTVYLQMISLKPEDTAFYYCNADGYSIYYLPYSDYDAYDYWGQGTQVTVSS | low polyreactivity
QVQLVESGGGIVEAGVSLRLRGAASGGSFKSKAMVWYRQAPGNEREFVAAISSSGGSTYYADSVKGRFTISRDNAKNTVYLLMNILKPEDTAVYYCAADDYGYPYLSYDYWGQGTQVTVSS | high polyreactivity
QVQLVESGGGIVQACGSLRLSCAASGFTFYVYAMGWYRKAPGKEREFVAAISKSGGRTYYADSVMGRFTISRDNAKNTVYLQMNSLKPEDTAVYYCGRYNRYQIIYPGFDYWGQGTQVTVSS | high polyreactivity
QVQLVESGGGIVQAGGRLRLSCAASGNTFQDYAMGWYRQAPGKERELVAAINSGGSTNYADSVKGRFTISRDNAKNTVYLQMNSLKPEDTAVYYCAAEPGEGFDYWGQGTQVTVSS | low polyreactivity
QVQLVESGGGIVQAGGSLRISCAASGYNFRYNAMGWYRQAPGKERELVATITRGGSTNYPDSVKGRFTISRDNAKNTVYLQMNSMKPEDTAVYYCKKEAAPLGFVPSYYGRDYWGQGTQVTVSS | low polyreactivity
QVQLVESGGGIVQAGGSLRLRCAASGFTFERYSMGWYRQAPGKERELVATITRRSGRTSYADSVKGRFTISRDNATNTVYLQMNRLKPEDTAVYYCAVDDAYPDRYDYWGQGTQVTVSS | high polyreactivity
QVQLVESGGGIVQAGGSLRLRCAASGSTFNKYAMGWYRQAPGKERELVAAISGGGRTNYADSVKGRFTISRDNAKNTVYLQMNSLKPEDTAVYSCARPSPHKGYDYWGQGTQVTVSS | high polyreactivity
QVQLVESGGGIVQAGGSLRLRCAASGSTFYLNVMGWYRQAPGQERELVAAISSGDGSTYYADSVKGRFTISRDNAKNTVYLQMNSLKPEDTAVYYCAAEPDTEVDYDYWGQGTQVTVSS | low polyreactivity
QVQLVESGGGIVQAGGSLRLSCAASAIIFLDNPMGWSRQAPGKERELVADITSSGGSTYYADSVKGRFTISRDNAKNTVSLQMNSLKPEDTAVYYCAKYVYGKFDGVRFSYDYWGQGTQVTVSS | low polyreactivity
QVQLVESGGGIVQAGGSLRLSCAASGFTFARNAMGWSRQAPGNEWELVAAISYRGGSTYYADSVKGRFTISRDNAKNTLYLQMNSLKPQDTAVYYCAAEVVWYVYRRYYYWGQGTQVTVSS | high polyreactivity
QVQLVESGGGIVQAGGSLRLSCAASGFTFRGNAMGWYRQAPGKERELVAVINASGDSTYYADSVKGRFTISRDNAKNTVYLQMNSLKPEDTAVYYCARAYTRRWRYDYWGQGTQVTVSS | high polyreactivity
QVQLVESGGGIVQAGGSLRLSCAASGGIFFPNAMGWYRQAPGKERELVAAISWSAGSTYYADSVKVRFTISRDNAKNTVYLKKISLIPEDTAVYYCAAAGSNYTVWYGYYYWGQGTQVTVSS | low polyreactivity
QVQLVESGGGIVQAGGSLRLSCAASGIIFYGYAMGWYRQAPGKERELVAVITSGGSTNYADSVKGRFTISRDNAKNTVYLQMNSLKPEDTAVYYCNAGYVSPDYDSWGQGTQVTVSS | high polyreactivity
QVQLVESGGGIVQAGGSLRLSCAASGITFPNYAMGWYRQAPGKERELVAAISSSGGSTYYADSVKGRFTISRDNPKNTVYLQMNSLKPEDTAVYYCATAINVYPRLDYGYWGQGTQVTVSS | low polyreactivity
QVQLVESGGGIVQAGGSLRLSCAASGLIFSVNAMGWYRQAPGKERELVASISVSGGSTYYADSVKGRFTISRDNAKNTVYLQMNSLKPEDTAVYYCNTVPLAGEYSTDLRYDYWGQGTQVTVSS | low polyreactivity
QVQLVESGGGIVQAGGSLRLSCAASGLNFGLYAMGWDRQAPGNERELVAAITWSGVSTSYADSVKGRFTISRDNAKNTVYLQMNSLKPEDTAVYYCNKDPGTLYGDMDSWGQGTQVTVSS | low polyreactivity
QVQLVESGGGIVQAGGSLRLSCAASGLSRGVNVMGLYRQAPGKERELVAAISGAGRTYYADSVKGRFTISRDNAKNTVFLQMNSLKPEDTAVYYCASVRRRLSLTYDYWGQGTQVTVSS | high polyreactivity
QVQLVESGGGIVQAGGSLRLSCAASGNIFPYYAMRWYRQERGKERELVASISRSGGSTYYADSVKGRFTISRDNAKNTVYLEMNSLKPEDTAVYYCNTLSRSWQMDYWGLGTQVTVSS | low polyreactivity
QVQLVESGGGIVQAGGSLRLSCAASGNIFSYYAMGWYRQAPGKERELVAAITYRSDSTYYADSVKGRFTISRDNAKNTVYLQMNSLKPEDTAVYYCATEPWYGWGFGYWGQGTQVTVSS | low polyreactivity
QVQLVESGGGIVQAGGSLRLSCAASGNTFHYYVMGWYRQAPGKERELVAAITYTGGSTYYADSVKGRFTISRDNAKNTVYLQMISLKPEDTAVYYCAAGFSPASQLDYWGQGTQVTVSS | low polyreactivity

Source: the nanobody polyreactivity screen of Harvey et al. (2022)
